Laboratory results as given in patent US20220153851A1 (Five Prime, published 2022).
Read-outs that look alike come from different tables or passages of the source.

Columns and labels:
mCSF1R ECD-Fc = target: T1, mCSF1R ECD-Fc (mouse); assay: ELISA, plate coated with mCSF1R ECD-Fc, detection anti-human kappa-HRP, A450
T1 construct: also called mouse CSF1R ECD
Protocol: (§1) Ninety-six well clear-bottom ELISA plates were coated overnight with 1 μg/ml recombinant hCSF1R ECD.506-Fc (SEQ ID NO: 6; FivePrime Therapeutics) or Human M-CSF R Fc Chimera (R&D Systems) in PBS. The next morning, wells were washed four times with 0.05% Tween20 in PBS (PBST) and blocked with Blocker-Blotto (Pierce). Fifty μl of 0.5× serial dilutions of the humanized antibody or parental chimeric antibody, beginning with 2000 ng/ml, diluted 1:1 in Blocker-Blotto were added to the CSF1R-coated wells. After incubation at room temperature (RT) for 90 min, wells were washed four times with PBST, and a 1:5000 dilution of a peroxidase-conjugated Goat anti-Human kappa Light chain antibody (Sigma) in Blocker-Blotto was added to each well. After incubation at RT for 60 min, wells were washed four times with PBST, and 50 μl o-phenylenediamine dihydrochloride peroxidase substrate (Sigma) was added to each well. After incubation at RT for 30 min, A450 values of each well were read directly on a SpectraMaxPlus spectrophotometer with SoftMaxPro software (Molecular Devices).
(§2) The binding curve for each humanized antibody binding to mouse CSF1R ECD was determined as described above for human CSF1R, except the wells of the clear-bottom ELISA plates were coated overnight with 2 μg/ml recombinant mCSF1R ECD-Fc (FivePrime Therapeutics, SEQ ID NO: 93).

[1] = target: T2, human CSF1R on CSF1R (SEQ ID NO: 2)-transfected CHO cells (human, UniProt P07333 20-972); assay: cell-based or functional assay
T2 sequence (P07333 20-972): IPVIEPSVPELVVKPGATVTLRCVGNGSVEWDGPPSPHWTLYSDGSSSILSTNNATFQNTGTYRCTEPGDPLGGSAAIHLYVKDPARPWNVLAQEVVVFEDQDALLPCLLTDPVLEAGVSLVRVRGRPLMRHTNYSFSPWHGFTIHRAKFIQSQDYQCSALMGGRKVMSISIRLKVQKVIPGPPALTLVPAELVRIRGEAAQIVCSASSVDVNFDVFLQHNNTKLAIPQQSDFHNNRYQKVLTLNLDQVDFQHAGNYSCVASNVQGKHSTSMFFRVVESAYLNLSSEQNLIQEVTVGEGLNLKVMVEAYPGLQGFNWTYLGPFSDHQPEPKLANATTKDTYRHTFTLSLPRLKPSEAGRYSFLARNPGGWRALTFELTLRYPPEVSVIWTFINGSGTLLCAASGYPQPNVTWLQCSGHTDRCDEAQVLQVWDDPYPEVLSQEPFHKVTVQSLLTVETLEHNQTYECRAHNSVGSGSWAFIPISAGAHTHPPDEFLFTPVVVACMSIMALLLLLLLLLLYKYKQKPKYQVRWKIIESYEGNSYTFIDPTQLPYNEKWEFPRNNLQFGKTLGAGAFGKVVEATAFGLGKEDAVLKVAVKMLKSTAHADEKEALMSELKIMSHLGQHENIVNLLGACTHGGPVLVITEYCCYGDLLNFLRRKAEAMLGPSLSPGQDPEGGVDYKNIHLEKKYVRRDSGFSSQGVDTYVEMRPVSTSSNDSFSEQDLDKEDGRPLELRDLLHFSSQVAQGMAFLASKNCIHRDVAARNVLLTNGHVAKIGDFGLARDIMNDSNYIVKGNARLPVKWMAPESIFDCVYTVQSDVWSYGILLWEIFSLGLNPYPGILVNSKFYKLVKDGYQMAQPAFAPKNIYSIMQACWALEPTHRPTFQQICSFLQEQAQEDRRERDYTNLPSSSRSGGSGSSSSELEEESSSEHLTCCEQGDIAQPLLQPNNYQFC

hCSF1R ECD.506-Fc = target: T3, hCSF1R ECD.506-Fc (human); assay: ELISA, plate coated with human CSF1R ECD-Fc
T3 construct: also called human CSF1R ECD-Fc fusion protein; human CSF1R ECD
T3 sequence (chain, as listed by the source limits assumed): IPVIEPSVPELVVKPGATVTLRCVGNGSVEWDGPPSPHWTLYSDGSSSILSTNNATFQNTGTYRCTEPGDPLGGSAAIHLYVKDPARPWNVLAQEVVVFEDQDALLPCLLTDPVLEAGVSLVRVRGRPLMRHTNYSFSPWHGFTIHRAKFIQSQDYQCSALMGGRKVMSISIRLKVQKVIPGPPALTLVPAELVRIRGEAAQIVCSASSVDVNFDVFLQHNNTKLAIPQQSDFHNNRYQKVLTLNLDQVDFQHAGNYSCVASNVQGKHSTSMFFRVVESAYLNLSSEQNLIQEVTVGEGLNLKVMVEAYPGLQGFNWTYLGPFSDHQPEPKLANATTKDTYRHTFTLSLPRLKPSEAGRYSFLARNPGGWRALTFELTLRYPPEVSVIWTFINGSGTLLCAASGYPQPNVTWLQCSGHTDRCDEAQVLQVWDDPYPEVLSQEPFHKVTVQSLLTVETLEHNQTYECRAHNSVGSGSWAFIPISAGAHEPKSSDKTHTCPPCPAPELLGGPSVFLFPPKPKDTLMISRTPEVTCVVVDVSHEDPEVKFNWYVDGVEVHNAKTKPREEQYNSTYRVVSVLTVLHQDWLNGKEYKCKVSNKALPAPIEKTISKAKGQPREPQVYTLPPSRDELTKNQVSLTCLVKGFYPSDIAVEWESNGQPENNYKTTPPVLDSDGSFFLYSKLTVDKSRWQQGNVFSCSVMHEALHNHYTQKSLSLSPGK
Protocol: as §1

cynoCSF1R ECD-Fc [2] = target: T4, cynoCSF1R ECD-Fc (cynomolgus); assay: competition ELISA, blocking of human CSF1 binding to cynoCSF1R ECD-Fc; blocking of human CSF1 binding to cynoCSF1R ECD
T4 construct: also called cynomolgus CSF1R ECD
T4 sequence (chain, as listed by the source): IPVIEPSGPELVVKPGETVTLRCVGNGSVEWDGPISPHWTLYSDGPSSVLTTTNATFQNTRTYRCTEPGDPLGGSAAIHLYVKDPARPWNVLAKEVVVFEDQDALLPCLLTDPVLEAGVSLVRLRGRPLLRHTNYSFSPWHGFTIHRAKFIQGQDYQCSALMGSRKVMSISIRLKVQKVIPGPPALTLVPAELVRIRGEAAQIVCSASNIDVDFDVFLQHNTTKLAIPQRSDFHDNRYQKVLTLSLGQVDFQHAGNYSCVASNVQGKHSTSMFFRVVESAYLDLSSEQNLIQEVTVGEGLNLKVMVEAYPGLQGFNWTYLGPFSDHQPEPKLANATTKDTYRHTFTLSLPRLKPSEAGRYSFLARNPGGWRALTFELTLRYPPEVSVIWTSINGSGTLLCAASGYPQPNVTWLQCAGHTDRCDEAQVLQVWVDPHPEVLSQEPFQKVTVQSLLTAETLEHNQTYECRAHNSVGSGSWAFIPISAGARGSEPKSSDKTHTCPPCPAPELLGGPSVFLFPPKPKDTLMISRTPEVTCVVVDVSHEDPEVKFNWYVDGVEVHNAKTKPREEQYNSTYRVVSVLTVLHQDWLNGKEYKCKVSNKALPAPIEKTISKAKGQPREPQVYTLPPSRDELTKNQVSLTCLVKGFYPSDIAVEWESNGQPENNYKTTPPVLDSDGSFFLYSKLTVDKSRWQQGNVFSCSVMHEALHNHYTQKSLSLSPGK
Protocol: (§3) The humanized antibodies, along with the parental chimeric antibodies (cAbs), were tested for their ability to block human CSF1 binding to human and cynomolgus CSF1R ECD, as follows.
Recombinant Human CSF1 (M-CSF; R&D Systems) was biotinylated using an NH₂-Biotin Labeling Kit (Dojindo Molecular Technologies). One hundred μl of 1 μg/ml biotinylated CSF1 in PBST/0.1% BSA was added to the wells of Reacti-Bind Streptavidin coated plates (Pierce) pre-blocked with SuperBlock blocking buffer (Pierce) according to the manufacturer's instructions. Fifty μl of 0.5× serial dilutions of the humanized antibody or parental chimeric antibody, beginning with 2000 ng/ml, was incubated with 50 ng/ml hCSF1R ECD.506-Fc (SEQ ID NO: 6; FivePrime Therapeutics) or 50 ng/ml cynoCSF1R ECD-Fc (FivePrime Therapeutics, SEQ ID NO: 8, but without the 19 amino acid leader sequence) in 100 μl PBST/0.1% BSA for 90 min at RT, after which the admix was transferred to one or more wells of a ligand-coated plate. After 90 min at RT, wells were washed with PBST, and a 1:5000 dilution of an Fc-fragment-specific peroxidase-conjugated goat anti-human IgG (Jackson Immuno Research) in PBST/0.1% BSA was added to each well. […] After incubation at RT for 30 min, A450 values of each well were read directly on a SpectraMaxPlus spectrophotometer with SoftMaxPro software (Molecular Devices).

cynoCSF1R ECD-Fc [3] = target: T4, cynoCSF1R ECD-Fc; assay: ELISA, plate coated with cynoCSF1R ECD-Fc
Protocol: as §1
as §2, with “cynomolgus” for “mouse”, “cynoCSF1R” for “mCSF1R”, “8, but without the 19 amino acid leader sequence).” for “93).”

[4] = target: T2, human CSF1R on CSF1R (SEQ ID NO: …); assay: cell-based or functional assay; remark: listed apart in the source
cynoCSF1R ECD-Fc [5] = target: T4, cynoCSF1R ECD-Fc; assay: competition ELISA, blocking of human IL34 binding to cynoCSF1R ECD-Fc
[6] = target: T2, human CSF1R on CSF1R (SEQ ID NO: …); assay: cell-based or functional assay; remark: listed apart in the source
cynoCSF1R ECD-Fc [7] = target: T4, cynoCSF1R ECD-Fc; assay: competition ELISA, blocking of human CSF1 binding to cynoCSF1R ECD-Fc
Protocol: as §3
(§4) Recombinant Human CSF1 (M-CSF; R&D Systems) was biotinylated using an NH₂-Biotin Labeling Kit (Dojindo Molecular Technologies). One hundred μl of 1 μg/ml biotinylated CSF1 in PBST/0.1% BSA was added to the wells of Reacti-Bind Streptavidin coated plates (Pierce) pre-blocked with SuperBlock blocking buffer (Pierce) according to the manufacturer's instructions. Fifty μl of 0.5× serial dilutions of the humanized antibody or parental chimeric antibody, beginning with 2000 ng/ml, was incubated with 50 ng/ml hCSF1R ECD.506-Fc (SEQ ID NO: 6; FivePrime Therapeutics) or 50 ng/ml cynoCSF1R ECD-Fc (FivePrime Therapeutics, SEQ ID NO: 8, but without the 19 amino acid leader sequence) in 100 μl PBST/0.1% BSA for 90 min at RT, after which the admix was transferred to one or more wells of a ligand-coated plate. After 90 min at RT, wells were washed with PBST, and a 1:5000 dilution of an Fc-fragment-specific peroxidase-conjugated goat anti-human IgG (Jackson Immuno Research) in PBST/0.1% BSA was added to each well. After incubation at RT for 60 min, wells were washed with PBST/0.1% BSA, and o-phenylenediamine dihydrochloride peroxidase substrate (Sigma) was added to each well. After incubation at RT for 30 min, A450 values of each well were read directly on a SpectraMaxPlus spectrophotometer with SoftMaxPro software (Molecular Devices).

cynoCSF1R ECD-Fc [8] = target: T4, cynoCSF1R ECD-Fc; assay: competition ELISA, blocking of human IL34 binding to cynoCSF1R ECD-Fc (curve-fit value far beyond the range tested); blocking of human IL34 binding to cynoCSF1R ECD
Protocol: Recombinant Human CSF1 (M-CSF; R&D Systems) was biotinylated using an NH₂-Biotin Labeling Kit (Dojindo Molecular Technologies). One hundred μl of 1 μg/ml biotinylated CSF1 in PBST/0.1% BSA was added to the wells of Reacti-Bind Streptavidin coated plates (Pierce) pre-blocked with SuperBlock blocking buffer (Pierce) according to the manufacturer's instructions. […] After incubation at RT for 30 min, A450 values of each well were read directly on a SpectraMaxPlus spectrophotometer with SoftMaxPro software (Molecular Devices).
The humanized antibodies were tested for their ability to block human IL34 binding to human CSF1R ECD. The blocking activity of each humanized antibody was determined as described above for blocking of CSF1, except recombinant human IL34 (FivePrime Therapeutics; SEQ ID NO: 68) was biotinylated using an NH2-Biotin Labeling Kit (Dojindo Molecular Technologies), and then 100 μl of 1 μg/ml biotinylated recombinant IL34 in PBST/0.1% BSA was added to the wells of Reacti-Bind Streptavidin coated plates (Pierce) pre-blocked with SuperBlock blocking buffer (Pierce) according to the manufacturer's instructions.

[9] = target: T2, human CSF1R on CSF1R (SEQ ID NO: …); assay: cell-based or functional assay; remark: listed apart in the source
hCSF1R ECD.506 = target: T5, hCSF1R ECD.506 (human, UniProt P07333 20-506); assay: SPR Biacore T100, antibody captured on anti-human IgG, hCSF1R ECD.506 as analyte, 1:1 model
T5 construct: also called human CSF1R ECD
T5 sequence (P07333 20-506): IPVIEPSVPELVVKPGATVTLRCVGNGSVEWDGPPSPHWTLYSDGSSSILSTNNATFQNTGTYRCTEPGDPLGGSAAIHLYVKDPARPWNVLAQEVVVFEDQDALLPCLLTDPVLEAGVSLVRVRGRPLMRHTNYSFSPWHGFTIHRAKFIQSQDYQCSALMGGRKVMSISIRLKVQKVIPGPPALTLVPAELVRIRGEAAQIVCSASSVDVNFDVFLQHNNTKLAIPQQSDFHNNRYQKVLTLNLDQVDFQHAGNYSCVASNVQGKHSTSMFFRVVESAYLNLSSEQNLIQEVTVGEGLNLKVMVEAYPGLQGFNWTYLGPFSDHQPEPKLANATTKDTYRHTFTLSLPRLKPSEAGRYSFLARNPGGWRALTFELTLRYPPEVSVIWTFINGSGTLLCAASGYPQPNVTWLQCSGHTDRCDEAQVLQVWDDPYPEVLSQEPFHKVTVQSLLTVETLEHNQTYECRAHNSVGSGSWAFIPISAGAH
Protocol: The kₐ, kd, and KD for binding to human CSF1R ECD was determined for each of the humanized antibodies as follows.
Binding kinetics of anti-CSF1R humanized antibodies to CSF1R ECD was determined using Biacore T100 Surface Plasmon Resonance (SPR) (GE Healthcare Life Sciences, Piscataway, N.Y.). Each of the humanized anti-CSF1R antibodies was captured on a CM5 sensor chip immobilized with anti-Human IgG antibody using the Human antibody capture kit (GE Healthcare Life Sciences, Piscataway, N.Y.) at 150 RU so that the Rmax value for hCSF1R ECD.506 (SEQ ID NO: 5) binding was 100 RU. Rmax values of less than 150 RU are recommended for accurately determining kinetic values. […] The association constant, dissociation constant, affinity, and binding capacity of each of the Fabs for human CSF1R ECD was calculated using the Biacore T100 Evaluation software package using the 1:1 binding model.

cynoCSF1R ECD-Fc [10] = target: T4, cynoCSF1R ECD-Fc; assay: competition ELISA, blocking of human CSF1 binding to cynoCSF1R ECD-Fc (curve-fit value beyond the range tested)
Protocol: as §4

T1 sequence (chain, as listed by the source limits assumed): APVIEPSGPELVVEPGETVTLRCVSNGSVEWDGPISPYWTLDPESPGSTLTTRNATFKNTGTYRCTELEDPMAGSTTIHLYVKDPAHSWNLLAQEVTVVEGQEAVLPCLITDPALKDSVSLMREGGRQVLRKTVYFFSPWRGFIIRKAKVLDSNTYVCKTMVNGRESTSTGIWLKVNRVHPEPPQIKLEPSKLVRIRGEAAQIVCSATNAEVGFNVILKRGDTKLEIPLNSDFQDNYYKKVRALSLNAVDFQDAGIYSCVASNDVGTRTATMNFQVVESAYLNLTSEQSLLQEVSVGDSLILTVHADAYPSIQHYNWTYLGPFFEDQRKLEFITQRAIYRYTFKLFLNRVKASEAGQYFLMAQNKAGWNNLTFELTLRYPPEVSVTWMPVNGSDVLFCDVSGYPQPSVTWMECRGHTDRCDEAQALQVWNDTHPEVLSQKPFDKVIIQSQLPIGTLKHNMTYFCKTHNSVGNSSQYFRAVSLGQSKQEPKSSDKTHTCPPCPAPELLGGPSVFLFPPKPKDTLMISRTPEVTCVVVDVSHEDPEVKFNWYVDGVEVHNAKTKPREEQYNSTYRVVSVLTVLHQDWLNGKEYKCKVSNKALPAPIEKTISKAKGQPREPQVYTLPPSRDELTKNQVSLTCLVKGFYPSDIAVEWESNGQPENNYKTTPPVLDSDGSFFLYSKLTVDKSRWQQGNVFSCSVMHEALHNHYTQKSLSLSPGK

binding result (mCSF1R ECD-Fc)	IC50 (read off the curve), CSF1-induced CSF1R phosphorylation [1] [µg/mL]	EC50 (hCSF1R ECD.506-Fc) [µg/mL]	IC50 (cynoCSF1R ECD-Fc [2]) [µg/mL]	EC50 (cynoCSF1R ECD-Fc [3]) [µg/mL]	IC50, inhibition of CSF1-induced CSF1R phosphorylation (head prints 'Human CSF1/Human CSF1R ECD IC50') [4] [µg/mL]	IC50, inhibition of IL34-induced CSF1R phosphorylation (head prints 'Human IL34/Human CSF1R ECD IC50') [4] [µg/mL]	IC50 (cynoCSF1R ECD-Fc [5]) [µg/mL]	IC50 (read off the curve), IL34-induced CSF1R phosphorylation [6] [µg/mL]	IC50 (cynoCSF1R ECD-Fc [7]) [µg/mL]	IC50 (cynoCSF1R ECD-Fc [8]) [µg/mL]	IC50 (read off the curve), CSF1-induced CSF1R phosphorylation [9] [µg/mL]	Kd (hCSF1R ECD.506) [nM]	koff (hCSF1R ECD.506) [s⁻¹]	kon (hCSF1R ECD.506) [M⁻¹ s⁻¹]	IC50 (cynoCSF1R ECD-Fc [10]) [µg/mL]	Binder
no binding (tested: 2000 ng/ml)	~0.3	0.0114	0.022	0.0152	0.307	0.312	0.0295									cAb 0301 (antibody, human IgG4 S228P, kappa, V domains shown) VH: EVQLQQSGPELVRPGASVKMSCKASGYTFTDNYMIWVKQSHGKSLEWIGDINPYNGGTTFNQKFKGKATLTVEKSSSTAYMQLNSLTSEDSAVYYCARESPYFSNLYVMDYWGQGTSVTVSS VL: NIVLTQSPASLAVSLGQRATISCKASQSVDYDGDNYMNWYQQKPGQPPKLLIYAASNLESGIPARFSGSGSGTDFTLNIHPVEEEDAATYYCHLSNEDLSTFGGGTKLEIKR
no binding (tested: 2000 ng/ml)		0.0146		0.467	0.928	0.615		~0.6	0.0155	> 2	~1	1.04	0.00369	3.54e+06		h0302-L0H1 (antibody, human IgG4 S228P, kappa, V domains shown, also called Ab7; huAb 0302-L0H1) VH: QVQLVQSGAEVKKPGSSVKVSCKASGYTFSDFNIHWVRQAPGQGLEWMGYINPYTDVTVYNEKFKGRVTITSDKSTSTAYMELSSLRSEDTAVYYCASYFDGTFDYALDYWGQGTLVTVSS VL: EIVLTQSPATLSLSPGERATLSCRASESVDNYGLSFMNWYQQKPGQAPRLLIYTASNLESGIPARFSGSGSGTDFTLTISSLEPEDFAVYYCQQSKELPWTFGQGTKVEIKR
no binding (tested: 2000 ng/ml)		0.00774		0.066	0.384	0.303	0.509					0.57	0.000914	1.6e+06	89.8	h0302-L2H1 (antibody, human IgG4 S228P, kappa, V domains shown, also called Ab9; huAb 0302-L2H1) VH: QVQLVQSGAEVKKPGSSVKVSCKASGYTFSDFNIHWVRQAPGQGLEWMGYINPYTDVTVYNEKFKGRVTITSDKSTSTAYMELSSLRSEDTAVYYCASYFDGTFDYALDYWGQGTLVTVSS VL: EIVVTQSPATLSLSPGERATLSCRASESVDNYGLSFMNWFQQKPGQAPRLLIYTASNLESGIPARFSGSGSRTDFTLTISSLEPEDFAVYYCQQSKELPWTFGQGTKVEIKR
